Measurements from patent publication US20260234228A1 (GENOME, published 2026).

T1: human CNTN4 overexpressed on cells (human, UniProt Q8IWV2 19-1000)
T1 construct: whole, on cells; the construct is not described; also called human CNTN4 cell; human CNTN4-overexpressing 293F cells
T1 sequence (looked up): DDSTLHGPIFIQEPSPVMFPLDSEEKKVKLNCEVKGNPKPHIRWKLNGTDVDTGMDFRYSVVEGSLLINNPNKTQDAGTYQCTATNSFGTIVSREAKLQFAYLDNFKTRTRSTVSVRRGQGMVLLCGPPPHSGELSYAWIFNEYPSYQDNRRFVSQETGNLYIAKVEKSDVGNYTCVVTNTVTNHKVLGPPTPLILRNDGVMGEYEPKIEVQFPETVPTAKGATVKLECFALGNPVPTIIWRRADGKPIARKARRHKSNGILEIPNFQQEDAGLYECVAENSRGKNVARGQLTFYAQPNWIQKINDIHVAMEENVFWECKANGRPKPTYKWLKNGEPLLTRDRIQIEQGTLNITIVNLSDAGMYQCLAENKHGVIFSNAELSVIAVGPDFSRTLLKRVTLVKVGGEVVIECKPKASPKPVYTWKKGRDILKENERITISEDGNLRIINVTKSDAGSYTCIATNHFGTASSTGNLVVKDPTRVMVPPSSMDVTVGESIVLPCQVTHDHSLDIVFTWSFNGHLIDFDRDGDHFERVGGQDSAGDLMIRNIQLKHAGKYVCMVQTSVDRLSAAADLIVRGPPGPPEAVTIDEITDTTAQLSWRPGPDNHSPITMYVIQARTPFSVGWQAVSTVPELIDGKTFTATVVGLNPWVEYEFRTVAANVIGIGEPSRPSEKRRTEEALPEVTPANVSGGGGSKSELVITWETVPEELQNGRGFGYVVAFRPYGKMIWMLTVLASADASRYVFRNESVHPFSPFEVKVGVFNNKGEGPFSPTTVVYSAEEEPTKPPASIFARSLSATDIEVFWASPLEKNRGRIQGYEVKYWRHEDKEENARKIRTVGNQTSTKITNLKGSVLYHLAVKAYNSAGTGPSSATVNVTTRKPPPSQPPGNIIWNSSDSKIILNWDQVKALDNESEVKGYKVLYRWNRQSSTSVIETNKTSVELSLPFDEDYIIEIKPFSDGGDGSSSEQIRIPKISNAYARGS

T2: mouse CNTN4 overexpressed on 293F cells (mouse, UniProt Q69Z26 19-1000)
T2 construct: whole, on cells; Overexpressed on 293F cells; the construct is not described; also called Mouse CNTN4 cell; mouse antigen-overexpressing 293F cells
T2 sequence (looked up): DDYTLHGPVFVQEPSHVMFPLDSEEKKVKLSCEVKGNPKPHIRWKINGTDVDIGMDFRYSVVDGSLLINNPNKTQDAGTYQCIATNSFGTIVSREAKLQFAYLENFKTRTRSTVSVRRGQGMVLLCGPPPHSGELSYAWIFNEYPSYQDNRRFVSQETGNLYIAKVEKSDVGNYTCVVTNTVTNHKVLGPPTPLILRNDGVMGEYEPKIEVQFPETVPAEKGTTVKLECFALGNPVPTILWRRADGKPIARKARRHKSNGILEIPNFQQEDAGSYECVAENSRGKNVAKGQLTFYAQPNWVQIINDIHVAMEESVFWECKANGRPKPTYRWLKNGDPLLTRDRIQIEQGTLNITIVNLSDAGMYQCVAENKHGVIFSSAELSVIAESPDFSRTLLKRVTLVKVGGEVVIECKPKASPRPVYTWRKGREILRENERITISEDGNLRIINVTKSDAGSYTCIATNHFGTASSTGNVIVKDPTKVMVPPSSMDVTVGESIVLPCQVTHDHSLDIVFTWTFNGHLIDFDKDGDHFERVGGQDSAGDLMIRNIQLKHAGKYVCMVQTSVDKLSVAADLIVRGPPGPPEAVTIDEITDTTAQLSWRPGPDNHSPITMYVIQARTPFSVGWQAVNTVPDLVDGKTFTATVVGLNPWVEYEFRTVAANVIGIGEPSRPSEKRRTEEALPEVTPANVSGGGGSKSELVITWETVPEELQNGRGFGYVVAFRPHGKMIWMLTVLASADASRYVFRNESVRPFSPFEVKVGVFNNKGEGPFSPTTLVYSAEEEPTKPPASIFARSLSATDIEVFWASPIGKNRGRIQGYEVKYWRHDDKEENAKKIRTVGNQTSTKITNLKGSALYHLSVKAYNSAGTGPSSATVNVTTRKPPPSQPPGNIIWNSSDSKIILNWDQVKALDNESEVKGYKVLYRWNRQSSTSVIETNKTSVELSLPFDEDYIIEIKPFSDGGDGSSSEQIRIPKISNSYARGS


What follows are binders tested against T1, human CNTN4 overexpressed on cells (assay: FACS, scFv periplasm on human CNTN4-overexpressing 293F cells, PE anti-His detection).

EC50 [nM] | Top MFI [MFI] | Binder
3.7 | 1290 | A218 scFv (scFv, V domains shown) VH: not shown VL: ELTQDPAVSVALGQTVRITCSGRSGSYGWYQQKPGQAPVLVIYDNTNRPSGIPDRFSGSSSGNTASLTITGAQAEDEADYYCGGYWGSTDVFGGGTKLTVL
3.2 | 1700 | A213 scFv (scFv, V domains shown) VH: not shown VL: ELTQDPAVSVALGQTVRITCSGSSGSYGWYQQKPGQAPVLVIYDNTNRPSGIPDRFSGSSSGNTASLTITGAQAEDEADYYCGGYWGSTDVFGGGTKLTVL
2.3 | 1600 | A209 scFv (scFv, V domains shown) VH: not shown VL: ELTQDPAVSVALGQTVRITCSGRSGSYGWYQQKPGQAPVLVIYDNTNRPSGIPDRFSGSSSGNTASLTITGAQAEDEADYYCGGYWGSTDVFGGGTKLTVL
2.8 | 1740 | A217 scFv (scFv, V domains shown) VH: not shown VL: ELTQDPAVSVALGQTVRITCSGSSGSYGWYQQKPGQAPVLVIYDNTNRPSGIPDRFSGSSSGNTASLTITGAQAEDEADYYCGGYWGSTDVFGGGTKLTVL
3.9 | 1270 | A219 scFv (scFv, V domains shown) VH: not shown VL: ELTQDPAVSVALGQTVRITCSGSSGSYGWYQQKPGQAPVLVIYDNTNRPSGIPDRFSGSSSGNTASLTITGAQAEDEADYYCGGYWGSTDVFGGGTKLTVL
3.1 | 1370 | A211 scFv (scFv, V domains shown) VH: not shown VL: ELTQDPAVSVALGQTVRITCSGRSGSYGWYQQKPGQAPVLVIYDNTNRPSGIPDRFSGSSSGNTASLTITGAQAEDEADYYCGGYWGSTDVFGGGTKLTVL
3.5 | 1460 | A214 scFv (scFv, V domains shown) VH: not shown VL: ELTQDPAVSVALGQTVRITCSGSSGSYGWYQQKPGQAPVLVIYDNTNRPSGIPDRFSGSSSGNTASLTITGAQAEDEADYYCGGYWGSTDVFGGGTKLTVL
2.7 | 1630 | A212 scFv (scFv, V domains shown) VH: not shown VL: ELTQDPAVSVALGQTVRITCSGRSGSYGWYQQKPGQAPVLVIYDNTNRPSGIPDRFSGSSSGNTASLTITGAQAEDEADYYCGGYWGSTDVFGGGTKLTVL
4.4 | 1380 | A210 scFv (scFv, V domains shown) VH: not shown VL: ELTQDPAVSVALGQTVRITCSGRSGSYGWYQQKPGQAPVLVIYDNTNRPSGIPDRFSGSSSGNTASLTITGAQAEDEADYYCGGYWGSTDVFGGGTKLTVL
2.9 | 1630 | A216 scFv (scFv, V domains shown) VH: not shown VL: ELTQDPAVSVALGQTVRITCSGRSGSYGWYQQKPGQAPVLVIYDNTNRPSGIPDRFSGSSSGNTASLTITGAQAEDEADYYCGGYWGSTDVFGGGTKLTVL
3.6 | 1470 | A215 scFv (scFv, V domains shown) VH: not shown VL: ELTQDPAVSVALGQTVRITCSGSSGSYGWYQQKPGQAPVLVIYDNTNRPSGIPDRFSGSSSGNTASLTITGAQAEDEADYYCGGYWGSTDVFGGGTKLTVL

The next lines start with the binder.

Binder | EC50 [nM] | Top MFI [MFI]
A202 scFv (scFv, V domains shown) VH: not shown VL: ELTQDPAVSVALGQTVRITCSGRSGSYGWYQQKPGQAPVLVIYDNTNRPSGIPDRFSGSSSGNTASLTITGAQAEDEADYYCGGYWGSTDVFGGGTKLTVL | 3 | 1750
A205 scFv (scFv, V domains shown) VH: not shown VL: ELTQDPAVSVALGQTVRITCSGSSGSYGWYQQKPGQAPVLVIYDNTNRPSGIPDRFSGSSSGNTASLTITGAQAEDEADYYCGGYWGSTDVFGGGTKLTVL | 2 | 1300
A201 scFv (scFv, V domains shown) VH: not shown VL: ELTQDPAVSVALGQTVRITCSGRSGSYGWYQQKPGQAPVLVIYDNTNRPSGIPDRFSGSSSGNTASLTITGAQAEDEADYYCGGYWGSTDVFGGGTKLTVL | 3.2 | 1380
A207 scFv (scFv, V domains shown) VH: not shown VL: ELTQDPAVSVALGQTVRITCSGSSGSYGWYQQKPGQAPVLVIYDNTNRPSGIPDRFSGSSSGNTASLTITGAQAEDEADYYCGGYWGSTDVFGGGTKLTVL | 3.2 | 1620
A204 scFv (scFv, V domains shown) VH: not shown VL: ELTQDPAVSVALGQTVRITCSGRSGSYGWYQQKPGQAPVLVIYDNTNRPSGIPDRFSGSSSGNTASLTITGAQAEDEADYYCGGYWGSTDVFGGGTKLTVL | 1.7 | 1700
A203 scFv (scFv, V domains shown) VH: not shown VL: ELTQDPAVSVALGQTVRITCSGRSGSYGWYQQKPGQAPVLVIYDNTNRPSGIPDRFSGSSSGNTASLTITGAQAEDEADYYCGGYWGSTDVFGGGTKLTVL | 3.3 | 1240
A206 scFv (scFv, V domains shown) VH: not shown VL: ELTQDPAVSVALGQTVRITCSGRSGSYGWYQQKPGQAPVLVIYDNTNRPSGIPDRFSGSSSGNTASLTITGAQAEDEADYYCGGYWGSTDVFGGGTKLTVL | 4.8 | 1370
A208 scFv (scFv, V domains shown) VH: not shown VL: ELTQDPAVSVALGQTVRITCSGSSGSYGWYQQKPGQAPVLVIYDNTNRPSGIPDRFSGSSSGNTASLTITGAQAEDEADYYCGGYWGSTDVFGGGTKLTVL | 3.7 | 1320

What follows are binders tested against T2, mouse CNTN4 overexpressed on 293F cells (assay: FACS, scFv periplasm on mouse CNTN4-overexpressing 293F cells, PE anti-His detection).

EC50 [nM] | Top MFI [MFI] | Binder
33.2 | 2070 | A101 scFv (scFv, V domains shown) VH: not shown VL: ELTQDPAVSVALGQTVRITCSGSSGSYGWYQQKPGQAPVLVIYDNTNRPSGIPDRFSGSSSGNTASLTITGAQAEDEADYYCGGYDGSTDVFGGGTKLTVL
13.9 | 2460 | A105 scFv (scFv, V domains shown) VH: not shown VL: ELTQDPAVSVALGQTVRITCSGSSGSYGWYQQKPGQAPVLVIYDNTNRPSGIPDRFSGSSSGNTASLTITGAQAEDEADYYCGGYDGSTDVFGGGTKLTVL
13.6 | 4110 | A107 scFv (scFv, V domains shown) VH: not shown VL: ELTQDPAVSVALGQTVRITCSGSSGSYGWYQQKPGQAPVLVIYDNTNRPSGIPDRFSGSSSGNTASLTITGAQAEDEADYYCGGYDGSTDVFGGGTKLTVL
72.6 | 2740 | A106 scFv (scFv, V domains shown) VH: not shown VL: ELTQDPAVSVALGQTVRITCSGSSGSYGWYQQKPGQAPVLVIYDNTNRPSGIPDRFSGSSSGNTASLTITGAQAEDEADYYCGGYDGSTDVFGGGTKLTVL
